Test results from PMC5589798, “Alpha subunit-dependent glycine receptor clustering and regulation of synaptic receptor numbers” (Scientific Reports, 2017).

What was measured:
[1] = target: endogenous α subunits of spinal cord neurons; test: PALM-based single molecule counting; fixed lentivirus-infected spinal cord neurons; bursts of Dendra2 detections counted in 120 nm clusters in sparse areas of the extrasynaptic plasma membrane, binomial fit
[2] = target: the molecule itself; test: PALM-based single molecule counting; fixed COS-7 cells expressing mEos2-gephyrin; cluster diameter 150 nm, burst length < 60 s, binomial fit
[3] = target: T1, endogenous extrasynaptic GlyRs (labelled by QDs on endogenous GlyRα1) (mouse (endogenous in spinal cord …, UniProt Q64018 29-457; P48168 23-496); test: PALM-based single molecule counting at QD-labelled receptors; fixed mouse spinal cord neurons; endogenous GlyRα1 labelled with mAb2b and Fab'-QD605, mEos2-gephyrin bursts counted at the QD sites in the extrasynaptic membrane; details: partners not purified
T1 construct: endogenous glycine receptor beta subunit of mouse spinal cord neurons; the discussion calls extrasynaptic GlyRs α3:β2 heteromers; Only the α1 subunit was labelled; also called endogenous GlyRs; receptor complexes; source: endogenous, mouse spinal cord neurons, fixed cells; copies: 3 + 2
T1 sequence (P48168 23-496, one chain of several): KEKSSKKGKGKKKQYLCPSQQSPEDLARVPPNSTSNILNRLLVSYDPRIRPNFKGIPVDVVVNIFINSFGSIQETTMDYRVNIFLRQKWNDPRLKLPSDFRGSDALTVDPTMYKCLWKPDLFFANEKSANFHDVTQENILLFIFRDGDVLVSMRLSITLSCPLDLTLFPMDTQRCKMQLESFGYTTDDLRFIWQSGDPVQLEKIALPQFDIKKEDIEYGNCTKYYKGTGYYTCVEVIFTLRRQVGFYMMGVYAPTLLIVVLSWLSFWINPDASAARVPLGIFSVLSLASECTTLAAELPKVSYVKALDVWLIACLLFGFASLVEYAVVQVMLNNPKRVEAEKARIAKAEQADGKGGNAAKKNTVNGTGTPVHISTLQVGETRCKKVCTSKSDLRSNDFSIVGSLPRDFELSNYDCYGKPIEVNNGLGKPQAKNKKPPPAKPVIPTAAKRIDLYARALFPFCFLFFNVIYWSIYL

[4] = target: T2, endogenous GlyRβ subunits of spinal cord neurons ( (endogenous in rat or mouse …, UniProt P20781 23-496)); test: PALM-based single molecule counting; fixed lentivirus-infected spinal cord neurons; bursts of Dendra2 detections counted in 120 nm clusters in sparse areas of the extrasynaptic plasma membrane, binomial fit; details: partners not purified
T2 construct: endogenous glycine receptor beta subunit of cultured spinal cord neurons; also called endogenous counterparts; source: endogenous, cultured spinal cord neurons, fixed cells
T2 sequence (P20781 23-496): as the sequence (P48168 23-496, one chain of several) above, with P23A counted along it

[5] = target: T3, untagged GlyRβ (UniProt P48167 23-497); test: PALM-based single molecule counting; fixed transfected COS-7 cells; bursts of Dendra2 detections counted in 120 nm clusters, binomial fit; Dendra2-GlyR subunits alone or with untagged subunits; details: partners not purified
T3 construct: glycine receptor beta subunit, untagged; also called untagged β subunits; non-fluorescent subunits; source: COS-7, transfected, in cells
T3 sequence (P48167 23-497): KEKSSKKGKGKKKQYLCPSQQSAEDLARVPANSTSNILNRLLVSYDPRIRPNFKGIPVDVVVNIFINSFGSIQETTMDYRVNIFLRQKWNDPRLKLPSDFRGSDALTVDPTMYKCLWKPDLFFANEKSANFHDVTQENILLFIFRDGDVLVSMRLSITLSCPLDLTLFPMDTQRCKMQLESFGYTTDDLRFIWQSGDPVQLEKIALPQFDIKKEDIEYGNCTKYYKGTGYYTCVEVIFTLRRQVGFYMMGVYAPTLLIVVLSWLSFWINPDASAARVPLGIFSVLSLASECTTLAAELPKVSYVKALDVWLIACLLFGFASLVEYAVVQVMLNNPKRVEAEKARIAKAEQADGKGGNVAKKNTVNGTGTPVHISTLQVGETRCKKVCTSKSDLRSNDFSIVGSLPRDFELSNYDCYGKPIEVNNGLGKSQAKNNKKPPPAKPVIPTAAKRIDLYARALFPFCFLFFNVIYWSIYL

## Dendra2-GlyRβ (FU-SP-myc-Dendra2-GlyRβ) (from UniProt P48167-1 23-497) (receptor)
[1]
  stoichiometry N: 1.5 α:β (3:2)

B1: mEos2-gephyrin (FU-mEos2-gephyrin) (natural protein, UniProt Q03555 1-768, looked up)
chain: MATEGMILTNHDHQIRVGVLTVSDSCFRNLAEDRSGINLKDLVQDPSLLGGTISAYKIVPDEIEEIKETLIDWCDEKELNLILTTGGTGFAPRDVTPEKFPTFPFCGLQKGATKEVIEREAPGMALAMLMGSLNVTPLGMLSRPVCGIRGKTLIINLPGSKKGSQECFQFILPALPHAIDLLRDAIVKVKEVHDELEDLPSPPPPLSPPPTTSPHKQTEDKGVQCEEEEEEKKDSGVASTEDSSSSHITAAALAAKIPDSIISRGVQVLPRDTASLSTTPSESPRAQATSRLSTASCPTPKQIRRPDESKGVASRVGSLKVQSRCSSKENILRASHSAVDITKVARRHRMSPFPLTSMDKAFITVLEMTPVLGTEIINYRDGMGRVLAQDVYAKDNLPPFPASVKDGYAVRAADGPGDRFIIGESQAGEQPTQTVMPGQVMRVTTGAPIPCGADAVVQVEDTELIRESDDGTEELEVRILVQARPGQDIRPIGHDIKRGECVLAKGTHMGPSEIGLLATVGVTEVEVNKFPVVAVMSTGNELLNPEDDLLPGKIRDSNRSTLLATIQEHGYPTINLGIVGDNPDDLLNALNEGISRADVIITSGGVSMGEKDYLKQVLDIDLHAQIHFGRVFMKPGLPTTFATLDIDGVRKIIFALPGNPVSAVVTCNLFVVPALRKMQGILDPRPTIIKARLSCDVKLDPRPEYHRCILTWHHQEPLPWAQSTGNQMSSRLMSMRSANGLLMLPPKTEQYVELHKGEVVDVMVIGRL
notes: gephyrin; neither species nor isoform is stated; In neurons, endogenous gephyrin is also present and dilutes the detected mEos2-gephyrin; source: COS-7, transfected, in cells; spinal cord neurons, lentivirus infected, in cells
[2]
  stoichiometry N: 3
[3]
  stoichiometry N: 1 gephyrin trimer per receptor complex

B2: Dendra2-GlyRα3 (FU-SP-myc-Dendra2-GlyRα3L) (receptor, human, UniProt O75311-1 34-464, looked up)
chain: ARSRSAPMSPSDFLDKLMGRTSGYDARIRPNFKGPPVNVTCNIFINSFGSIAETTMDYRVNIFLRQKWNDPRLAYSEYPDDSLDLDPSMLDSIWKPDLFFANEKGANFHEVTTDNKLLRIFKNGNVLYSIRLTLTLSCPMDLKNFPMDVQTCIMQLESFGYTMNDLIFEWQDEAPVQVAEGLTLPQFLLKEEKDLRYCTKHYNTGKFTCIEVRFHLERQMGYYLIQMYIPSLLIVILSWVSFWINMDAAPARVALGITTVLTMTTQSSGSRASLPKVSYVKAIDIWMAVCLLFVFSALLEYAAVNFVSRQHKELLRFRRKRKNKTEAFALEKFYRFSDMDDEVRESRFSFTAYGMGPCLQAKDGMTPKGPNHPVQVMPKSPDEMRKVFIDRAKKIDTISRACFPLAFLIFNIFYWVIYKILRHEDIHQQQD
notes: human glycine receptor alpha-3 subunit, long isoform (α3L); Five copies hold for the homomeric receptor (expressed alone in COS-7); also called homomeric Dendra2-GlyRα3; source: COS-7, transfected (FuGENE 6), in cells; spinal cord neurons, lentivirus infected, in cells; not shown: myc, N-terminal, kept; Dendra2, N-terminal, kept
[4]
  stoichiometry N: 1.5 α:β (3:2)
[5]
  stoichiometry N: 3 α3 subunits per complex

B3: Dendra2-GlyRα1 (FU-SP-myc-Dendra2-GlyRα1) (receptor, rat, UniProt P07727-1 29-457, looked up)
chain: ARSAPKPMSPSDFLDKLMGRTSGYDARIRPNFKGPPVNVSCNIFINSFGSIAETTMDYRVNIFLRQQWNDPRLAYNEYPDDSLDLDPSMLDSIWKPDLFFANEKGAHFHEITTDNKLLRISRNGNVLYSIRITLTLACPMDLKNFPMDVQTCIMQLESFGYTMNDLIFEWQEQGAVQVADGLTLPQFILKEEKDLRYCTKHYNTGKFTCIEARFHLERQMGYYLIQMYIPSLLIVILSWISFWINMDAAPARVGLGITTVLTMTTQSSGSRASLPKVSYVKAIDIWMAVCLLFVFSALLEYAAVNFVSRQHKELLRFRRKRRHHKSPMLNLFQDDEGGEGRFNFSAYGMGPACLQAKDGISVKGANNNNTTNPAPAPSKSPEEMRKLFIQRAKKIDKISRIGFPMAFLIFNMFYWIIYKIVRREDVHNK
notes: rat glycine receptor alpha-1 subunit, isoform a; Five copies hold for the homomeric receptor (expressed alone in COS-7); also called homomeric Dendra2-GlyRα1; source: COS-7, transfected (FuGENE 6), in cells; spinal cord neurons, lentivirus infected, in cells; not shown: myc, N-terminal, kept; Dendra2, N-terminal, kept
[4]
  stoichiometry N: 1.5 α:β (3:2)
